Measured values as given in patent publication US20090208538A1.

How the values were obtained:
HLA-A*1501 (human) [1] = assay: iTopia affinity
HLA-A*1501 (human) [2] = assay: iTopia net score
HLA-A*0201 (human) [3] = assay: iTopia affinity
HLA-A*0201 (human) [4] = assay: iTopia binding
HLA-A*0201 (human) [5] = assay: iTopia net score

Binder | ED50 (HLA-A*1501 (human) [1]) [µM] | iScore (HLA-A*1501 (human) [2]) | ED50 (HLA-A*0201 (human) [3]) [µM] | binding vs positive control (HLA-A*0201 (human) [4]) [%] | iScore (HLA-A*0201 (human) [5])
PSFACLKEL [cdr2 156-164 …] | 45 | 0.072 | – | – | –
MLQSEHPFV (modifications not checked) [cdr2 260-268 …] | – | – | 2 | > 30 | 0.584
RQKRVTMEE [cdr2 213-221 …] | 110 | 0.065 | – | – | –
YDLRQHFVY [cdr2 165-173 …] | 45 | 0.098 | – | – | –
MRQMLQSEH [cdr2 257-265 …] | 170 | 0.075 | – | – | –
QQLGATGAY [cdr2 235-243 …] | 8.6 | 0.255 | – | – | –
LQQDLQLAA [cdr2 24-32 …] | 42 | 0.09 | – | – | –
LLRQMNEQH [cdr2 72-80 …] | 68 | 0.106 | – | – | –
